Test results: patent US7563882B2, “Polynucleotides encoding antibodies that bind to the C35 polypeptide” (University of Rochester, priority 2002, dated 2009)

How the values were obtained:
HLA-B*0702 = HLA-B*0702 (Homo sapiens, UniProt P01889); test: Fluorescence polarization competition for MHC-peptide binding; settings: soluble HLA-B*0702, fluorescent labeled binding standard
Protocol: A similar analysis was conducted with C35 peptides that bind to soluble HLA-B*0702 employing a fluorescent labeled HLA-B*0702 binding standard and suitable relevant and irrelevant peptides to calibrate inhibition of binding by test peptides. Note that these inhibition values are sensitive to the choice and concentration of both MHC molecule and specific fluorescent peptides under the same assay conditions.

EBV-B target cells = test: C35 peptide mediated T cell lysis of peptide pulsed EBV-B cells (Table 10); type: cell-based, human
T cell line 4 = type: cell-based, human
hC35 protein = target: T1, hC35 protein (Homo sapiens, UniProt Q9BRT3); test: Western Blot immunodetection with hybridoma supernatants; type: binding; settings: 100 ng purified recombinant C35 protein or control β-galactosidase per lane
T1 construct: made in house; host or cells: E. coli
T1 sequence (Q9BRT3 1-115): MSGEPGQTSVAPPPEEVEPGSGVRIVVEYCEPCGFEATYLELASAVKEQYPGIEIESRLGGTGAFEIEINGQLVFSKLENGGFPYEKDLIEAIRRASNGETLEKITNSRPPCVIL
Protocol: Western Blot Immunodetection was performed with supernatants from selected hybridoma clones. […] In these experiments, 100 ng of purified recombinant C35 protein or control β-galactosidase protein was loaded in each lane of an 18% SDS polyacrylamide gel. Gels were transferred to PVDF membrane, as is well known to those practiced in the art. Membranes were blocked with Tris buffered saline (TBS), including Tween-20 and 5% non-fat dry milk. Each blot was incubated with various dilutions of hybridoma supernatants as the primary antibody, followed by incubation with a secondary antibody, goat anti-mouse IgG conjugated to HRP, and detected with the chemiluminescent substrate, ECL. Similar results were obtained with 11B10 (not shown).

C35 = target: T2, C35 (Homo sapiens, UniProt Q9BRT3); test: Immunohistochemical staining of primary breast tumor sections; type: binding; settings: paraffin sections, affinity purified antibody
T2 construct: from tissue; host or cells: paraffin sections of primary human breast tumor (invasive breast adenocarcinoma, patient 01A6) and normal breast tissue
T2 sequence (Q9BRT3 1-115): T1 sequence (Q9BRT3 1-115)
Excerpt: Antibody was affinity purified from 1F2 hybridoma supernatant. Paraffin-embedded slides were deparaffinized with xylene and rehydrated through graded alcohols. Target retrieval was achieved through steam and high pH treatment. […] Slides were counterstained with hematoxylin, dehydrated with EtOH/xylene, and coverslipped.

With NSRPPCVIL [N107 to L115] the “% Inhibition” value (HLA-B*0702) was 68.2%.

ITNSRPPCV [105-113] was tested, and the “% Inhibition” value (HLA-B*0702) was 45.2%.

For KLENGGFPY [peptide 77-85], the “% Lysis EBV-B cell Target” value (EBV-B target cells; T cell clone #46, donor (A2, A3; B18, B44), target pulsed with peptide) was 97.1%, the “lytic activity on EBV-B cells pulsed with peptide” value (EBV-B target cells; T cell clones from donor with A2, A3, B18, B44 HLA haplotypes) was 97.1% and the GM-CSF stimulation (T cell line 4) was “greatest stimulation”.

B1: 3E10: C35-specific monoclonal antibody; Kappa and IgG1 V-genes SEQ ID NOs:150 and 151 (antibody, V domains shown)
VH: MMVLSLLYLLTALPGILSEVQLQESGPSLVKPSQTLSLTCSVTGDSITSGYWNWIRKFPGNKLEYVGYISYSGGTYYNPSLKSRISITRDTSKNHYYLQLNSVTTEDTATYYCARGAYYGGAFFPYFDVWGAGTTVTVSS
VL: MRFQVQVLGLLLLWISGAHCDVQITQSPSFLAASPGETITINCRASKYISKHLVWYQEKPGETKKLLIYSGSTLQSGLPSRFSGSGSGTDFTLTISSLEPEDFAMYYCQQHNEYPLTFGAGTKLELK
modifications: cDNA of 3E10 V-genes (IgG1); cDNA of 3E10 V-genes (Kappa)
In the case of B1, the “reactivity with hC35 protein in Western Blot” value (hC35 protein) is reported as “reacted specifically”.

B2: 1F2: C35-specific monoclonal antibody; Kappa and IgG1 V-genes SEQ ID NOs:148 and 149 (antibody, V domains shown)
VH: MKVLSLLYLLTAIPGILSDVQLQESGPGLVKPSQSLSLTCSVTGYSITSGYFWNWIRQFPGNKLEWMGYISYDGSNNSNPSLKNRISFTRDTSKNQFFLKFNSVTTDDSAAYYCTRGTTGFAYWGQGTLVTVSA
VL: MDFQVQIFSFLLISASVRMSRGQIVLTQSPAIMSASPGEKVTISCSASSSVSYMNWYQQKPGSSPKPWIYHTSNLASGVPARFSGSGSGTSYSLTISSMEAEDAATYYCQQYHSYPPTFGGGTKLEIK
modifications: cDNA of 1E11/1F2 V-genes (IgG1); cDNA of 1E11/1F2 V-genes (Kappa)
In the case of B2, the “reactivity with hC35 protein in Western Blot” value (hC35 protein) is reported as “reacted specifically”, the “immunohistochemical staining of human breast tumors” value (C35) is reported as “can detect high levels of endogenous C35 expression” and the “immunohistochemical staining of normal breast tissue” value (C35) is reported as “little or no staining”.
